T1: full length WT dynamin-1 (UniProt Q05193)
T1 sequence: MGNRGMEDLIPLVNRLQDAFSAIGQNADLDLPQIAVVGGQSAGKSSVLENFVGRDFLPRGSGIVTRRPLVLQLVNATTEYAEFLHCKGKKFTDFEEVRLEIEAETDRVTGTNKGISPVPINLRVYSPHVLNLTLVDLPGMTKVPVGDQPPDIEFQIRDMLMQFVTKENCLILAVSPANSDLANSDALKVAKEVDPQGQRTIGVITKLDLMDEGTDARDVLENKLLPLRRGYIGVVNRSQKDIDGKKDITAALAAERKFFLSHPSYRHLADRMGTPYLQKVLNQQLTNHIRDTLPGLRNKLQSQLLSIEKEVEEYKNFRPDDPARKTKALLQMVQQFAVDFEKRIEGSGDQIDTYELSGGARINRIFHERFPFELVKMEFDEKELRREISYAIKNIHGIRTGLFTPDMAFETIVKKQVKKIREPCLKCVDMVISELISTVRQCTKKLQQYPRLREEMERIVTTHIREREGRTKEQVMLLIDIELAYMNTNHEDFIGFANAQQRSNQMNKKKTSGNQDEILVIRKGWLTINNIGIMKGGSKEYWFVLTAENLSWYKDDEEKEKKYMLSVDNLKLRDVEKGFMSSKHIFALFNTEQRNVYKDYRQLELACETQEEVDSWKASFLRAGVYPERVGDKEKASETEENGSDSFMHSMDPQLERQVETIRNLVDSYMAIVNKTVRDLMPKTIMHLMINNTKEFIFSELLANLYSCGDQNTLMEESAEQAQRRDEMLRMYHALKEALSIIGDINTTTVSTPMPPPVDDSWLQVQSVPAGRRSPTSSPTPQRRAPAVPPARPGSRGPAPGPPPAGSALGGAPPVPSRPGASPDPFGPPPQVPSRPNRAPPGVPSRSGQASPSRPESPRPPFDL


Molecular target: T1, full length WT dynamin-1

| Binder | inhibition of fission activity (vesicle release from SUPER templates) of 0.5 µM WT dynamin-1 by increasing S45N (∼50% at mutant:WT 0.5; value given at 1:1), 1 mM GTP, room temperature | inhibition of fission activity (vesicle release from SUPER templates) of 0.5 µM WT dynamin-1 by increasing Q40E (∼50% at mutant:WT 0.5; value given at 1:1), 1 mM GTP, room temperature |
| --- | --- | --- |
| full length S45N dynamin-1 (enzyme) MGNRGMEDLIPLVNRLQDAFSAIGQNADLDLPQIAVVGGQSAGKNSVLENFVGRDFLPRGSGIVTRRPLVLQLVNATTEYAEFLHCKGKKFTDFEEVRLEIEAETDRVTGTNKGISPVPINLRVYSPHVLNLTLVDLPGMTKVPVGDQPPDIEFQIRDMLMQFVTKENCLILAVSPANSDLANSDALKVAKEVDPQGQRTIGVITKLDLMDEGTDARDVLENKLLPLRRGYIGVVNRSQKDIDGKKDITAALAAERKFFLSHPSYRHLADRMGTPYLQKVLNQQLTNHIRDTLPGLRNKLQSQLLSIEKEVEEYKNFRPDDPARKTKALLQMVQQFAVDFEKRIEGSGDQIDTYELSGGARINRIFHERFPFELVKMEFDEKELRREISYAIKNIHGIRTGLFTPDMAFETIVKKQVKKIREPCLKCVDMVISELISTVRQCTKKLQQYPRLREEMERIVTTHIREREGRTKEQVMLLIDIELAYMNTNHEDFIGFANAQQRSNQMNKKKTSGNQDEILVIRKGWLTINNIGIMKGGSKEYWFVLTAENLSWYKDDEEKEKKYMLSVDNLKLRDVEKGFMSSKHIFALFNTEQRNVYKDYRQLELACETQEEVDSWKASFLRAGVYPERVGDKEKASETEENGSDSFMHSMDPQLERQVETIRNLVDSYMAIVNKTVRDLMPKTIMHLMINNTKEFIFSELLANLYSCGDQNTLMEESAEQAQRRDEMLRMYHALKEALSIIGDINTTTVSTPMPPPVDDSWLQVQSVPAGRRSPTSSPTPQRRAPAVPPARPGSRGPAPGPPPAGSALGGAPPVPSRPGASPDPFGPPPQVPSRPNRAPPGVPSRSGQASPSRPESPRPPFDL | 80% | – |
| full length Q40E dynamin-1 (enzyme) MGNRGMEDLIPLVNRLQDAFSAIGQNADLDLPQIAVVGGESAGKSSVLENFVGRDFLPRGSGIVTRRPLVLQLVNATTEYAEFLHCKGKKFTDFEEVRLEIEAETDRVTGTNKGISPVPINLRVYSPHVLNLTLVDLPGMTKVPVGDQPPDIEFQIRDMLMQFVTKENCLILAVSPANSDLANSDALKVAKEVDPQGQRTIGVITKLDLMDEGTDARDVLENKLLPLRRGYIGVVNRSQKDIDGKKDITAALAAERKFFLSHPSYRHLADRMGTPYLQKVLNQQLTNHIRDTLPGLRNKLQSQLLSIEKEVEEYKNFRPDDPARKTKALLQMVQQFAVDFEKRIEGSGDQIDTYELSGGARINRIFHERFPFELVKMEFDEKELRREISYAIKNIHGIRTGLFTPDMAFETIVKKQVKKIREPCLKCVDMVISELISTVRQCTKKLQQYPRLREEMERIVTTHIREREGRTKEQVMLLIDIELAYMNTNHEDFIGFANAQQRSNQMNKKKTSGNQDEILVIRKGWLTINNIGIMKGGSKEYWFVLTAENLSWYKDDEEKEKKYMLSVDNLKLRDVEKGFMSSKHIFALFNTEQRNVYKDYRQLELACETQEEVDSWKASFLRAGVYPERVGDKEKASETEENGSDSFMHSMDPQLERQVETIRNLVDSYMAIVNKTVRDLMPKTIMHLMINNTKEFIFSELLANLYSCGDQNTLMEESAEQAQRRDEMLRMYHALKEALSIIGDINTTTVSTPMPPPVDDSWLQVQSVPAGRRSPTSSPTPQRRAPAVPPARPGSRGPAPGPPPAGSALGGAPPVPSRPGASPDPFGPPPQVPSRPNRAPPGVPSRSGQASPSRPESPRPPFDL | – | 60% |

— article PMC3561337
